Laboratory results as given in patent publication US20120014950A1, “Antibodies That Specifically Bind to DR3” (Xencor, Inc., priority 2010, published 2012).

What was measured:
DR3 receptor = target: T1, DR3 receptor (Homo sapiens, UniProt Q93038); assay: TF-1 assay (cell viability, cycloheximide, Cell Titer Glo); assay type: cell-based; details: TF-1 cells with cycloheximide; luminescence
T1 construct: endogenous in cells; host or cells: TF-1 (premyeloid)
T1 sequence (Q93038 25-417): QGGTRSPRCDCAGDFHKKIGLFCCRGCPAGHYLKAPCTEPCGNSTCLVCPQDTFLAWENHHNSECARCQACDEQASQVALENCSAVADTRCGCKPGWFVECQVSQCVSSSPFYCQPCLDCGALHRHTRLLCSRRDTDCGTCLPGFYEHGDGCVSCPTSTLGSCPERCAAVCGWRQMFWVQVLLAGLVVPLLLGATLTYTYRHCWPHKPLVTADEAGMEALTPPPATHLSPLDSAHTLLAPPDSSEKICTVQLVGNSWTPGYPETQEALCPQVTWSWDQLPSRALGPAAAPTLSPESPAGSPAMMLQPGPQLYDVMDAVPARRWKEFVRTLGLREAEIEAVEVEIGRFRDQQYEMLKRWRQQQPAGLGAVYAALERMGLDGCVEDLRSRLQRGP

[1] = test system: collagen induced arthritis (CIA) mice; assay: Murine collagen induced arthritis (CIA) model; assay type: in vivo, DBA/1JLacJ mice; details: i.p., 200 μg (dexamethasone 50 μg)
Method: In general CIA was induced using the following protocol. Male DBA/1JLacJ mice (8-10 weeks) were injected intradermally (i.d.) at the base of the tail with […] of type II bovine collagen (CII) and complete Freund's adjuvant (CFA) at a final concentration of 4 mg/ml on Day 1. Mice were given a second injection i.d. with CII and CFA on Day 21. On days 21, 28, 35, and 42, mice were treated prophylactically with 200 μg intraperitoneal (i.p.) of the therapeutic molecules, anti-TNF-α antibody (R&D systems, cat #AB-410-NA) or D06-Fab-MSA. In addition, a control group of mice was not treated with a therapeutic molecule (“No Treatment”) and a second control group was treated with 50 μg dexamethasone i.p. every other day (e.o.d.) (“Dexamethasone”). The animals were scored every other day until the experiment was terminated on Day 46.
In a separate experiment, on days 21, 28, 35, and 42, CIA-mice were treated prophylactically with 200 μg intraperitoneal (i.p.) of either 2D9-Fab-MSA, or 5D10-Fab-MSA. In addition, a control group of mice was treated with an isotype control antibody (IgG1). The animals were scored every other day until the experiment was terminated on Day 46. Clinical scores were determined as above.
Histology was preformed to further determine the degree of inflammation as well as potential bone erosion in these animals. […]

For “TL1A: human TL1A (TNFSF15), the natural ligand for DR3; positive control [reference compound]”, the “TF-1 cell viability / apoptosis induction (agonist, TL1A-like activity)” value (DR3 receptor) was “induce apoptosis”.
With `C[C@@H]1C[C@H]2[C@@H]3CCC4=CC(=O)C=C[C@]4(C)[C@@]3(F)[C@@H](O)C[C@]2(C)[C@@]1(O)C(=O)CO` [Dexamethasone] the “% Arthritis Incidence at Day 42” value [1] was 0%.
